Results as given in patent US20040186044A1, “Modulation of myelination by interaction with P75 and TRK receptors” (priority 2002, published 2004).

Assays:
[1] = tested on: Schwann cell/neuronal cocultures; assay: P0 immunocytochemistry of mature myelin internodes in Schwann cell/neuronal cocultures; assay type: cell-based; conditions: for Schwann cell proliferation and morphology of ensheathed Schwann cells / cell death (neurofilament and nuclear staining): 100 ng/ml; for formation of mature myelin internodes (P0 immunostaining): BDNF, TrkB-Fc, TrkC-Fc 1 μg/ml, added at day of induction, 6 days after induction
Procedure: (§1) Dorsal Root Ganglia (DRG) Neuronal Schwann Cell Cocultures. Purified neuronal and Schwann cell cultures were prepared as previously described. Neuronal cultures were established from DRG neurons obtained from Sprague-Dawley rat embryos at 15 days gestation (Simonsen Laboratories, Gilroy, Calif.). DRG neurons were dissociated and plated onto collagen coated coverslips. Nonneuronal cells were eliminated by cycling (three 2-day cycles) with a fluorodeoxyuridine-containing medium (10 μM). NGF-dependent neurons were then maintained for 1 week in a medium consisting of 10% FBS in MEM and 100 ng/ml of NGF.
(§2) Schwann cells were isolated from the sciatic nerve of 4-day-old rat pups. Schwann cells were purified by using cytosine arabinoside and Thy-1.1 antibody mediated lysis of the fibroblasts (the anti-Thy-1.1 antibody was obtained from the American Type Culture Collection). Approximately 100,000 purified Schwann cells were than seeded onto purified neuronal cultures of ˜50,000 cells and allowed to proliferate and ensheath the axons (˜1 week). Myelination was then initiated with the addition of ascorbic acid (50 μg/ml), which was replenished with feeding every 2 to 3 days.
Immunocytochemistry. Cocultures were fixed in 4% paraformaldehyde before dehydration through a graded ethanol series (50, 70, 90, and 100%). Samples were then permeabilized and blocked by incubation with 20% normal goat serum or 10% FCS. Primary antibodies included the mouse monoclonal anti-P0 antibody used at a dilution of 1:500 and the mouse monoclonal anti-MAG at a concentration of 2.5 μg/ml. The Texas red-conjugated anti-mouse IgG (Jackson ImmunoResearch) was used as a secondary antibody at a dilution of 1:1,000. Cellular nuclei were examined by using the Hoechst dye. Samples were mounted and fluorescence microscopy was accomplished by using a Nikon Microphot FXA.

[2] = tested on: Schwann cell/neuronal cocultures; assay: Western blot of myelin proteins MAG and P0 in Schwann cell/DRG neuronal cocultures; assay type: cell-based, rat
Procedure: as §1, §2
(§3) Western Blot Analysis. Samples from Schwann cell/neuronal co-cultures and sciatic nerves were prepared for Western blot analysis by homogenization in radioimmunoprecipitation assay (RIPA) buffer [PBS with 1% Nonidet P-40/0.5% deoxycholate/0.1% SDS/1 mM PMSF/Complete protease inhibitor tablets (Roche Molecular Biochemicals)] followed by high-speed centrifugation. Protein determination was made by using the Bicinchoninic Acid Kit (Sigma). Equivalent amounts of total protein extract from each sample were mixed with sample buffer, boiled, and loaded onto SDS polyacrylamide gels. Electrophoretic separation of the extracts was typically performed on 10-15% (depending on the molecular weight of the protein of interest) discontinuous acrylamide gels under denaturing conditions. The proteins were then transferred to pure nitrocellulose membranes (PROTRAN BA85, Schleicher and Schuell, 0.45 μm) and probed with specific antibodies. The mouse monoclonal anti-myelin-associated glycoprotein (MAG; Chemicon) was used at a concentration of 2.5 μg/ml (under nonreducing conditions); the mouse monoclonal anti-P0 antibody was used at a dilution of 1:5,000. All primary antibodies were incubated overnight at 4° C. Secondary HRP-conjugated anti-mouse IgG and anti-rabbit IgG antibodies were used at a dilution of 1:10,000 (Jackson ImmunoResearch). The blots were developed by chemiluminescence (Renaissance, DuPont_NEN) as described by the manufacturer. All of the blots were imaged and quantitated in the linear range for the corresponding antibodies. Protein concentrations of the samples were serial diluted until linear intensities were achieved. In many instances, the blots were stripped and reprobed with different antibodies.

SC/DRG cocultures = assay: TUNEL analysis of neuronal or glial survival in SC/DRG cocultures; assay type: cell-based, rat; conditions: added at the start of myelination
sciatic nerve [3] = assay: Western blot of MAG and P0 in developing sciatic nerve after s.c. injection of newborn mice; assay type: in vivo, mouse; conditions: for P0 and MAG protein expression, wild-type mice: newborn wild-type mice, Western-blot 4 days later
Procedure: as §3
(§4) Injections in Mouse Sciatic Nerve. BDNF, NT3, TrkB-Fc, and TrkC-Fc (3 μg each; Regeneron Pharmaceuticals) were injected s.c. starting from the caudal portion of the greater trochanter region and running parallel along the sciatic nerve (total volume of 5 μl). T he contralateral leg served as a control for each factor with the injection of saline. Injections were performed on 1-day-old mouse pups (C57BU6, Simonsen Laboratories) and the sciatic nerves were extracted and processed 48 h later. A second set of mice were reinjected with the factors and then examined after an additional 48 h (4 days of total treatment). Nerves used for electron microscopy were trimmed and incisions were made at the flexure of the greater trochanter. In total, 11 animals were analyzed after injection with BDNF, 12 with TrkB-Fc, 11 with NT3, and 7 with TrkC-Fc.

[4] = tested on: sciatic nerve of p75NTR -/- mice; assay: Western blot of P0 and MAG in sciatic nerve of injected newborn p75NTR -/- mice; assay type: in vivo, mouse; conditions: Western-blot 4 days later
Procedure: (§5) (A-B) Newborn wild-type and p75^NTR −/− mice were injected with BDNF (wild-type, n=10; p75^NTR −/−, n=25) and NT3 (wild-type, n=13; p75^NTR −/−, n=14) or the scavengers TrkB-Fc (wild-type, n=13; p75^NTR −/−, n=20) and TrkC-Fc (wild-type, n=14; p75^NTR −/−, n=20) and the levels of (A) P0 and (B) MAG were analyzed by Western-blot 4 days later. Asterisks: p<0.01. (C-D) Wild-type and p75^NTR −/− SC/DRG cocultures were established from E13 mouse embryos obtained through crossing heterozygous (p75^NTR +/−) mice. Levels of (C) P0 and (D) MAG were determined by Western-blot six days after initiation of myelination in the presence of the different factors. Asterisks: p<0.01.

[5] = tested on: wild-type SC/DRG cocultures; assay: Western blot of P0 and MAG in wild-type mouse SC/DRG cocultures; assay type: cell-based; conditions: six days after initiation of myelination
Procedure: as §5

[6] = tested on: p75NTR -/- SC/DRG cocultures; assay: Western blot of P0 and MAG in p75NTR -/- mouse SC/DRG cocultures; assay type: cell-based; conditions: six days after initiation of myelination
Procedure: as §5

sciatic nerve [7] = assay: Electron microscopy of myelin ultrastructure in developing sciatic nerve of injected newborn mice; assay type: in vivo, mouse
Procedure: as §4
Electron Microscopy. Electron microscopy was performed by the Electron Microscopy Facility in the Department of Microbiology and Immunology (Stanford University, CA). Processing of the sciatic nerve was accomplished by fixation in 2% glutaraldehyde and 4% paraformaldehyde solution in PBS, followed by post-fixation in 1% OSO4. […] Finally, samples were infiltrated and embedded in pure epoxy.

[8] = 100 ng/ml added at day of induction, analysed after 6 days of induction
[9] = 3 μg at P1, reinjected 2 days later, nerves at P5, vs contralateral saline
[10] = 3 μg at P1, reinjected, nerves at P5

Q: For `COC(=O)[C@@]1(O)C[C@H]2O[C@]1(C)n1c3ccccc3c3c4c(c5c6ccccc6n2c5c31)C(=O)NC4` [K252a, K-252a, reference compound], which “formation of mature myelin internodes (P0 immunocytochemistry)” value ([1]; rat SC/DRG cocultures, Example 2) is on record?
A: Its value is “increase”.

Q: What about the “accumulation of myelin proteins MAG and P0” value ([2]; rat SC/DRG cocultures treated for 6 days from induction) of the same molecule?
A: The value was “increase in myelin protein accumulation”.

Q: What about the “neuronal or glial survival” value (SC/DRG cocultures) of the same molecule?
A: The value was “does not affect neuronal or glial survival”.

Q: For “NT3: neurotrophin-3, gift from Regeneron Pharmaceuticals”, which “inhibition of MAG and P0 expression in the sciatic nerves” value (sciatic nerve [3]; 3 μg s.c., mice treated for 2 days, vs contralateral leg) is on record?
A: The value was roughly 25%.

Q: What about the “P0 and MAG protein expression, wild-type mice” value (sciatic nerve [3]) of the same molecule?
A: The value was “inhibited”.

Q: And the “P0 and MAG protein expression, p75NTR -/- mice” value [4]?
A: The value was “inhibited”.

Q: And the “myelin protein expression (P0, MAG), wild-type cocultures” value [5]?
A: Its value is “inhibited”.

Q: What about the “Schwann cell proliferation and morphology of ensheathed Schwann cells” value [1] of the same molecule?
A: Its value is “Neither BDNF nor NT3 caused any changes”.

Q: And the “cell death (neurofilament and nuclear staining)” value [1]?
A: Its value is “no sign of increased cell death”.

Q: What about the “formation of mature myelin internodes (P0 immunostaining)” value ([1]; NT3 100 ng/ml) of the same molecule?
A: Its value is “inhibited the appearance of myelin internodes”.

Q: What about the “thickness and length of detected internodes vs control cultures” value ([1]; NT3 100 ng/ml, TrkB-Fc 1 μg/ml) of the same molecule?
A: The value was “significantly thinner and shorter in length”.

Q: What about the “diminished expression of MAG” value [2, 8] of the same molecule?
A: The value was roughly 2 fold.

Q: And the “diminished expression of P0” value [2, 8]?
A: Its value is roughly 3 fold.

Q: What about the “myelin protein expression (P0, MAG), p75NTR -/- cocultures” value [6] of the same molecule?
A: The value was “inhibited”.

B1: BDNF: neurotrophin brain-derived neurotrophic factor, gift from Regeneron Pharmaceuticals (protein, UniProt P23560 19-247, looked up)
Neurotrophic factor BDNF …: APMKEANIRGQGGLAYPGVRTHGTLESVNGPKAGSRGLTSLADTFEHVIEELLDEDQKVRPNEENNKDADLYTSRVMLSSQVPLEPPLLFLLEEYKNYLDAANMSMRVRRHSDPARRGELSVCDSISEWVTAADKKTAVDMSGGTVTVLEKVPVSKGQLKQYFYETKCNPMGYTKEGCRGIDKRHWNSQCRTTQSYVRALTMDSKKRIGWRFIRIDTSCVCTLTIKRGR
Q: For B1, which “enhancement of MAG and P0 expression in the sciatic nerves” value (sciatic nerve [3]; 3 μg s.c., 1-day-old mouse pups, vs saline-injected contralateral leg) is on record?
A: Its value is “more than 50%”.

Q: What about the “P0 and MAG protein expression, wild-type mice” value (sciatic nerve [3]) of the same molecule?
A: Its value is “enhanced P0 and MAG protein expression”.

Q: And the “P0 and MAG expression in sciatic nerve” value (sciatic nerve [3]; s.c. injection of newborn mice, nerves isolated four days later (Example 2))?
A: Its value is “enhanced P0 and MAG expression”.

Q: And the “P0 and MAG protein expression, p75NTR -/- mice” value [4]?
A: Its value is “neither BDNF nor TrkB-Fc were able to modulate myelin protein expression”.

Q: And the “decrease in ensheathed axons” value (sciatic nerve [7]; [9])?
A: Its value is 2 fold.

Q: And the “number of myelinated axons” value (sciatic nerve [7]; [9])?
A: Its value is “significant correlative increase in the number of myelinated axons”.

Q: And the “more wraps of myelin on average than control nerves” value (sciatic nerve [7]; [10])?
A: The value was 25%.

Q: What about the “percentage of myelinated axons with more than 25 wraps of myelin” value (sciatic nerve [7]; [10]) of the same molecule?
A: The value was “more than 30%”.

Q: And the “thickness of the myelin sheath (number of lamellae distribution) vs contralateral control nerve” value (sciatic nerve [7]; newborn mice, sciatic nerve)?
A: Its value is “significantly thicker”.

Q: And the “total number of axons vs contralateral control nerves” value (sciatic nerve [7]; ultrastructural studies)?
A: The value was “did not reveal any differences in the total number of axons”.

Q: And the “myelin protein expression (P0, MAG), wild-type cocultures” value [5]?
A: The value was “enhanced”.

Q: And the “Schwann cell proliferation and morphology of ensheathed Schwann cells” value [1]?
A: The value was “Neither BDNF nor NT3 caused any changes”.

Q: And the “cell death (neurofilament and nuclear staining)” value [1]?
A: The value was “no sign of increased cell death”.

Q: And the “formation of mature myelin internodes (P0 immunostaining)” value ([1]; NT3 100 ng/ml)?
A: The value was “produced an enhancement in myelin formation”.

Q: And the “enhancement of MAG expression over control cultures” value [2, 8]?
A: Its value is roughly 2 fold.

Q: And the “enhancement of P0 expression over control cultures” value [2, 8]?
A: The value was roughly 1.5 fold.

Q: What about the “modulation of myelination (P0 and MAG) in the presence of K252a” value ([2]; in combination with K252a, 6 days) of the same molecule?
A: Its value is “still able to modulate myelination”.

Q: What about the “myelin protein expression (P0, MAG), p75NTR -/- cocultures” value [6] of the same molecule?
A: The value was “neither BDNF nor TrkB-Fc had any effect”.
